{"source": "patent US11402384B2", "about": "(Duke University, priority 2015, dated 2022)", "data": [{"test": "Ratiometric fluorescence glucose titration of fluorescent conjugates", "assay_type": "binding", "design": "key to Shape (fluorescence response to glucose) / Change (fluorescence response to glucose): m, monochromatic; d, dichromatic (i.e. spectral shape change); 0, no change", "details": "tsGBP2 cysteine scan, Acrylodan conjugate", "procedure,_shortened": "(§1)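 Single-cysteine glucose-binding protein mutants labelled site-specifically with thiol-reactive environmentally sensitive fluorophores; emission spectra recorded during glucose titration to detect ligand-mediated intensity and spectral-shape changes for ratiometric read-out. Temperature- and ligand-dependent fluorescence landscapes acquired in 1K steps; binding fitted to single-site fractional saturation.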", "values": [{"molecule": "W9C Acrylodan: tsGBP2_C9 (SEQ ID NO: 18) Acrylodan conjugate (conjugate, Acrylodan conjugate; tsGBP2_C9 (9C substitution mutant with signal peptide replaced with M and a GGSHHHHHH at C-terminus)) MKLEIFSWCAGDEGPALEALIRLYKQKYPGVEVINATVTGGAGVNAKAVLKTRMLGGDPPDTFQVHAGQELIGTWVVADRMEDLTSLFRQEGWLQAFPKGLIDLLSYKGGIWSVPVNIHRSNVMWYIPAKLKEWGVTPPKTWAEFLATAQTLKRKGLEAPLALGENWTQQHLWESVALATLGADGWNNLWSGKLKFTDPKAVAVWETFGKVLDAANKDAAGLSWQQAVDRVVQGKAAFNIMGDWAAGYMSTTLKLKPGTDFAWTPSPGTSGIFMMLSDSFGLPKGAKNRQNAINWLKLVGSKEGQDTFNPLKGSIAARLDSDPAKYNAYGQSAMKDWKSNRIVGSLVHGAVAPESFMSQFGTVMEIFLQSRNPQAAANAAQAIANQVGLGRGGSHHHHHH", "Shape (fluorescence response to glucose)": "m"}]}, {"test": "Ratiometric fluorescence glucose titration of fluorescent conjugates", "assay_type": "binding", "design": "key to Shape (fluorescence response to glucose) / Change (fluorescence response to glucose): m, monochromatic; d, dichromatic (i.e. spectral shape change); 0, no change", "details": "tsGBP2 cysteine scan, Badan conjugate", "procedure,_shortened": "as §1", "values": [{"molecule": "W8C Badan: tsGBP2_C8 (SEQ ID NO: 17) Badan conjugate (conjugate, Badan conjugate; tsGBP2_C8 (8C substitution mutant with signal peptide replaced with M and a GGSHHHHHH at C-terminus)) MKLEIFSCWAGDEGPALEALIRLYKQKYPGVEVINATVTGGAGVNAKAVLKTRMLGGDPPDTFQVHAGQELIGTWVVADRMEDLTSLFRQEGWLQAFPKGLIDLLSYKGGIWSVPVNIHRSNVMWYIPAKLKEWGVTPPKTWAEFLATAQTLKRKGLEAPLALGENWTQQHLWESVALATLGADGWNNLWSGKLKFTDPKAVAVWETFGKVLDAANKDAAGLSWQQAVDRVVQGKAAFNIMGDWAAGYMSTTLKLKPGTDFAWTPSPGTSGIFMMLSDSFGLPKGAKNRQNAINWLKLVGSKEGQDTFNPLKGSIAARLDSDPAKYNAYGQSAMKDWKSNRIVGSLVHGAVAPESFMSQFGTVMEIFLQSRNPQAAANAAQAIANQVGLGRGGSHHHHHH", "Shape (fluorescence response to glucose)": "m"}, {"molecule": "W9C Badan: tsGBP2_C9 (SEQ ID NO: 18) Badan conjugate (conjugate, Badan conjugate; tsGBP2_C9 (9C substitution mutant with signal peptide replaced with M and a GGSHHHHHH at C-terminus)) MKLEIFSWCAGDEGPALEALIRLYKQKYPGVEVINATVTGGAGVNAKAVLKTRMLGGDPPDTFQVHAGQELIGTWVVADRMEDLTSLFRQEGWLQAFPKGLIDLLSYKGGIWSVPVNIHRSNVMWYIPAKLKEWGVTPPKTWAEFLATAQTLKRKGLEAPLALGENWTQQHLWESVALATLGADGWNNLWSGKLKFTDPKAVAVWETFGKVLDAANKDAAGLSWQQAVDRVVQGKAAFNIMGDWAAGYMSTTLKLKPGTDFAWTPSPGTSGIFMMLSDSFGLPKGAKNRQNAINWLKLVGSKEGQDTFNPLKGSIAARLDSDPAKYNAYGQSAMKDWKSNRIVGSLVHGAVAPESFMSQFGTVMEIFLQSRNPQAAANAAQAIANQVGLGRGGSHHHHHH", "Shape (fluorescence response to glucose)": "m"}]}, {"test": "Ratiometric fluorescence glucose titration of fluorescent conjugates", "assay_type": "binding", "design": "key to Shape (fluorescence response to glucose) / Change (fluorescence response to glucose): m, monochromatic; d, dichromatic (i.e. spectral shape change); 0, no change", "details": "tsGBP 13C affinity mutants, Acrylodan or Badan conjugates", "procedure,_shortened": "as §1", "values": [{"molecule": "W8F B: tsGBP2.13C.W8F (SEQ ID NO: 37) Badan conjugate (conjugate, Badan conjugate; tsGBP2.13C.W8F (13C, 8F double substitution mutant)) MKLEIFSFWAGDCGPALEALIRLYKQKYPGVEVINATVTGGAGVNAKAVLKTRMLGGDPPDTFQVHAGQELIGTWVVADRMEDLTSLFRQEGWLQAFPKGLIDLLSYKGGIWSVPVNIHRSNVMWYIPAKLKEWGVTPPKTWAEFLATAQTLKRKGLEAPLALGENWTQQHLWESVALATLGADGWNNLWSGKLKFTDPKAVAVWETFGKVLDAANKDAAGLSWQQAVDRVVQGKAAFNIMGDWAAGYMSTTLKLKPGTDFAWTPSPGTSGIFMMLSDSFGLPKGAKNRQNAINWLKLVGSKEGQDTFNPLKGSIAARLDSDPAKYNAYGQSAMKDWKSNRIVGSLVHGAVAPESFMSQFGTVMEIFLQSRNPQAAANAAQAIANQVGLGRGGSHHHHHH", "Change (fluorescence response to glucose)": 0}, {"molecule": "W9F B: tsGBP2.13C.W9F (SEQ ID NO: 40) Badan conjugate (conjugate, Badan conjugate; tsGBP2.13C.W9F (13C 9F double substitution mutant with signal peptide replaced with M and a GGSHHHHHH at C-terminus)) MKLEIFSWFAGDCGPALEALIRLYKQKYPGVEVINATVTGGAGVNAKAVLKTRMLGGDPPDTFQVHAGQELIGTWVVADRMEDLTSLFRQEGWLQAFPKGLIDLLSYKGGIWSVPVNIHRSNVMWYIPAKLKEWGVTPPKTWAEFLATAQTLKRKGLEAPLALGENWTQQHLWESVALATLGADGWNNLWSGKLKFTDPKAVAVWETFGKVLDAANKDAAGLSWQQAVDRVVQGKAAFNIMGDWAAGYMSTTLKLKPGTDFAWTPSPGTSGIFMMLSDSFGLPKGAKNRQNAINWLKLVGSKEGQDTFNPLKGSIAARLDSDPAKYNAYGQSAMKDWKSNRIVGSLVHGAVAPESFMSQFGTVMEIFLQSRNPQAAANAAQAIANQVGLGRGGSHHHHHH", "Change (fluorescence response to glucose)": 0}, {"molecule": "W8Y A: tsGBP2.13C.W8Y (SEQ ID NO: 39) Acrylodan conjugate (conjugate, Acrylodan conjugate; tsGBP2.13C.W8Y (13C, 8Y double substitution mutant with signal peptide replaced with M and a GGSHHHHHH at C-terminus)) MKLEIFSYWAGDCGPALEALIRLYKQKYPGVEVINATVTGGAGVNAKAVLKTRMLGGDPPDTFQVHAGQELIGTWVVADRMEDLTSLFRQEGWLQAFPKGLIDLLSYKGGIWSVPVNIHRSNVMWYIPAKLKEWGVTPPKTWAEFLATAQTLKRKGLEAPLALGENWTQQHLWESVALATLGADGWNNLWSGKLKFTDPKAVAVWETFGKVLDAANKDAAGLSWQQAVDRVVQGKAAFNIMGDWAAGYMSTTLKLKPGTDFAWTPSPGTSGIFMMLSDSFGLPKGAKNRQNAINWLKLVGSKEGQDTFNPLKGSIAARLDSDPAKYNAYGQSAMKDWKSNRIVGSLVHGAVAPESFMSQFGTVMEIFLQSRNPQAAANAAQAIANQVGLGRGGSHHHHHH", "Change (fluorescence response to glucose)": "m/d^c"}, {"molecule": "W9F A: tsGBP2.13C.W9F (SEQ ID NO: 40) Acrylodan conjugate (conjugate, Acrylodan conjugate; tsGBP2.13C.W9F (13C 9F double substitution mutant with signal peptide replaced with M and a GGSHHHHHH at C-terminus)) MKLEIFSWFAGDCGPALEALIRLYKQKYPGVEVINATVTGGAGVNAKAVLKTRMLGGDPPDTFQVHAGQELIGTWVVADRMEDLTSLFRQEGWLQAFPKGLIDLLSYKGGIWSVPVNIHRSNVMWYIPAKLKEWGVTPPKTWAEFLATAQTLKRKGLEAPLALGENWTQQHLWESVALATLGADGWNNLWSGKLKFTDPKAVAVWETFGKVLDAANKDAAGLSWQQAVDRVVQGKAAFNIMGDWAAGYMSTTLKLKPGTDFAWTPSPGTSGIFMMLSDSFGLPKGAKNRQNAINWLKLVGSKEGQDTFNPLKGSIAARLDSDPAKYNAYGQSAMKDWKSNRIVGSLVHGAVAPESFMSQFGTVMEIFLQSRNPQAAANAAQAIANQVGLGRGGSHHHHHH", "Change (fluorescence response to glucose)": "m"}, {"molecule": "W8M B: tsGBP2.13C.W8M (SEQ ID NO: 38) Badan conjugate (conjugate, Badan conjugate; tsGBP2.13C.W8M (13C, 8M double substitution mutant with signal peptide replaced with M and a GGSHHHHHH at C-terminus)) MKLEIFSMWAGDCGPALEALIRLYKQKYPGVEVINATVTGGAGVNAKAVLKTRMLGGDPPDTFQVHAGQELIGTWVVADRMEDLTSLFRQEGWLQAFPKGLIDLLSYKGGIWSVPVNIHRSNVMWYIPAKLKEWGVTPPKTWAEFLATAQTLKRKGLEAPLALGENWTQQHLWESVALATLGADGWNNLWSGKLKFTDPKAVAVWETFGKVLDAANKDAAGLSWQQAVDRVVQGKAAFNIMGDWAAGYMSTTLKLKPGTDFAWTPSPGTSGIFMMLSDSFGLPKGAKNRQNAINWLKLVGSKEGQDTFNPLKGSIAARLDSDPAKYNAYGQSAMKDWKSNRIVGSLVHGAVAPESFMSQFGTVMEIFLQSRNPQAAANAAQAIANQVGLGRGGSHHHHHH", "Change (fluorescence response to glucose)": "m"}, {"molecule": "W8F A: tsGBP2.13C.W8F (SEQ ID NO: 37) Acrylodan conjugate (conjugate, Acrylodan conjugate; tsGBP2.13C.W8F (13C, 8F double substitution mutant)) MKLEIFSFWAGDCGPALEALIRLYKQKYPGVEVINATVTGGAGVNAKAVLKTRMLGGDPPDTFQVHAGQELIGTWVVADRMEDLTSLFRQEGWLQAFPKGLIDLLSYKGGIWSVPVNIHRSNVMWYIPAKLKEWGVTPPKTWAEFLATAQTLKRKGLEAPLALGENWTQQHLWESVALATLGADGWNNLWSGKLKFTDPKAVAVWETFGKVLDAANKDAAGLSWQQAVDRVVQGKAAFNIMGDWAAGYMSTTLKLKPGTDFAWTPSPGTSGIFMMLSDSFGLPKGAKNRQNAINWLKLVGSKEGQDTFNPLKGSIAARLDSDPAKYNAYGQSAMKDWKSNRIVGSLVHGAVAPESFMSQFGTVMEIFLQSRNPQAAANAAQAIANQVGLGRGGSHHHHHH", "Change (fluorescence response to glucose)": 0}, {"molecule": "W8Y B: tsGBP2.13C.W8Y (SEQ ID NO: 39) Badan conjugate (conjugate, Badan conjugate; tsGBP2.13C.W8Y (13C, 8Y double substitution mutant with signal peptide replaced with M and a GGSHHHHHH at C-terminus)) MKLEIFSYWAGDCGPALEALIRLYKQKYPGVEVINATVTGGAGVNAKAVLKTRMLGGDPPDTFQVHAGQELIGTWVVADRMEDLTSLFRQEGWLQAFPKGLIDLLSYKGGIWSVPVNIHRSNVMWYIPAKLKEWGVTPPKTWAEFLATAQTLKRKGLEAPLALGENWTQQHLWESVALATLGADGWNNLWSGKLKFTDPKAVAVWETFGKVLDAANKDAAGLSWQQAVDRVVQGKAAFNIMGDWAAGYMSTTLKLKPGTDFAWTPSPGTSGIFMMLSDSFGLPKGAKNRQNAINWLKLVGSKEGQDTFNPLKGSIAARLDSDPAKYNAYGQSAMKDWKSNRIVGSLVHGAVAPESFMSQFGTVMEIFLQSRNPQAAANAAQAIANQVGLGRGGSHHHHHH", "Change (fluorescence response to glucose)": 0}]}]}
